In publication PMC4058522, “Structural Basis for Phosphorylation-Dependent Recruitment of Tel2 to Hsp90 by Pih1” (Structure(London, England:1993), 2014):
“Also recorded” adds a separate entry of the source.

What was measured:
[1] = molecular target: full-length Hsp90 dimer; test: ITC, Spagh/RPAP3 binding to full-length Hsp90 dimer; conditions: 500 μM yeast Hsp90 into 20 μM Spagh/RPAP3^120–395, 10 mM Tris pH 7.5, 5 mM NaCl, ~1:2 molar ratio
Description: Heat of interaction was measured on an ITC200 microcalorimeter (Microcal) under the same buffer conditions (20 mM Tris, pH 7.5, containing 5 mM NaCl). Aliquots of the Tel2 peptides at 350 μM were injected into 30 μM of Pih1 at 30°C. Interactions with Tah1 or Spagh/RPAP3^120–395 were performed in 10 mM Tris pH 7.5 and 5 mM NaCl at 10°C and 30°C. Aliquots of 600 μM Tah1 were injected into 40 μM of yeast Hsp90, 400 μM of SRMEEVD injected into 30 μM Tah1, 301 μM yeast Hsp90 injected into 25 μM yeast Tah1-Pih1 complex, and 400 μM SRMEEVD injected into 30 μM yeast Tah1-Pih1 complex. For Spagh/RPAP3^120–395 experiments, aliquots of 500 μM yeast Hsp90 were injected into 20 μM Spagh/RPAP3^120–395 or 2 mM […] into 80 μM Spagh/RPAP3^120–395 or mutants (N172E, N321E, and N172E-N321E). Heats of dilution were determined by diluting injectant into buffer. Data were fitted using a curve-fitting algorithm (Microcal Origin). ATPase assays were previously described ([Prodromou et al., 1999]).

[2] = tested on: human Hsp90β; test: Hsp90 ATPase assay, human Hsp90β; format: biochemical; conditions: 10 μM Hsp90β, 40 μM RPAP3; % maximum activity of wild type

Kd [1]: 6.8 µM
B1: Spagh/RPAP3: tandem TPR region of human Spagh/RPAP3, residues 120–395 (protein)
chain: ESEEDGIHVDSQKALVLKEKGNKYFKQGKYDEAIDCYTKGMDADPYNPVLPTNRASAYFRLKKFAVAESDCNLAVALNRSYTKAYSRRGAARFALQKLEEAKKDYERVLELEPNNFEATNELRKISQALASKENSYPKEADIVIKSTEGERKQIEAQQNKQQAISEKDRGNGFFKEGKYERAIECYTRGIAADGANALLPANRAMAYLKIQKYEEAEKDCTQAILLDGSYSKAFARRGTARTFLGKLNEAKQDFETVLLLEPGNKQAVTELSKIKK
modifications: left off: GST, end not stated, state not stated
effect on ATPase activity of human Hsp90β (in words) [2]: failed to show any strong regulatory effect; also recorded: no major effect
